The numbers were not newly measured in publication PMC4610412, which cites them from elsewhere.

The data set addresses pCdc25C (Homo sapiens) (UniProt P30307). The data set can be described thus: ITC.

Sequence of pCdc25C (Homo sapiens) (P30307 2-473): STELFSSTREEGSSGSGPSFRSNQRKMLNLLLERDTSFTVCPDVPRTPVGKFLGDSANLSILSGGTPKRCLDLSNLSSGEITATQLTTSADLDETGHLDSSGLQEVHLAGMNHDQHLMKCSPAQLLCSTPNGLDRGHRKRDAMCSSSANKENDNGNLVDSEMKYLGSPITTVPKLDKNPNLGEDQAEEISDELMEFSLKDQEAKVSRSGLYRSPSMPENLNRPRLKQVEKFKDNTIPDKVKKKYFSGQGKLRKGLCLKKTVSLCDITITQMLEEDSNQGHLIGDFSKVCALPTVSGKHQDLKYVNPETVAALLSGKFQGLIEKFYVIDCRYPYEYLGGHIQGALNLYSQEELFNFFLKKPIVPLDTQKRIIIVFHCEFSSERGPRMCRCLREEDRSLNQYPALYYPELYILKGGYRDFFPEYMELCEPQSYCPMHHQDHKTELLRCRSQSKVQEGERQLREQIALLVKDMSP
Sequence of Pin1 PPIase (Q13526 52-163): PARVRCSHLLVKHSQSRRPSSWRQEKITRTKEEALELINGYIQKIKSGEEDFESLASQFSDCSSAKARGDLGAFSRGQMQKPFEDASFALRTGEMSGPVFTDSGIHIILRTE
Sequence of Pin1 WW (Q13526 2-42): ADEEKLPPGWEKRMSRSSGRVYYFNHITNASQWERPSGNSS

For Pin1 PPIase (from UniProt Q13526), the dissociation constant Kd is 1000 µM.
Pin1 WW (from UniProt Q13526): the Kd was 13 µM.
